The text below walks through data of patent US11278600B2, “Human alpha-galactosidase variants” (Codexis, Inc., priority 2014, dated 2022).

Holding throughout (type): biochemical
For one data set, the target named is T1, GLA (Homo sapiens, UniProt P06280).
T1 construct: made in house; host or cells: HEK293 / HEK293T cells, transient transfection; unpurified culture supernatant used
T1 sequence (P06280 32-429): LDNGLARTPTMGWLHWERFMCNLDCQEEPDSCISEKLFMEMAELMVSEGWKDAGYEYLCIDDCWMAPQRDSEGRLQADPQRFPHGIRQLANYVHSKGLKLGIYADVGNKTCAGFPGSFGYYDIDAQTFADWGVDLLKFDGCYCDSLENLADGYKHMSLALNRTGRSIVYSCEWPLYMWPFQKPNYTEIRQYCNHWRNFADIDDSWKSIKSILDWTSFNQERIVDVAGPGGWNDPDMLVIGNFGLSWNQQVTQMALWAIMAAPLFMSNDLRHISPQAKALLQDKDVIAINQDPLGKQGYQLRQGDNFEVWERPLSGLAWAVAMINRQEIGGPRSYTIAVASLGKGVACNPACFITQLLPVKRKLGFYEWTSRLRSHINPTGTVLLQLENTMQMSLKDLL
The data set is described as follows: Effect of Migalastat on thermostability and activity of GLA (HEK293T supernatants).

A short description of data set [1]: Optimization of signal peptide for secreted expression of GLA by S. cerevisiae. The source says:
Two strategies for secreted GLA expression were utilized, using the yeast MFa signal peptide (MF-SP) or a longer leader sequence of 83 amino acids (MF-leader) to drive secretion of a yeast codon-optimized mature human GLA. Clones were expressed from a pYT-72 vector in S. cerevisiae strain INVSc1. Both approaches provided supernatants with measurable activity on the fluorogenic substrate 4-methylumbelliferyl α-D-galactopyranoside (4-MuGal). However, the construct with the yeast MFa signal peptide provided 3-fold higher activities and was used as the starting sequence for directed evolution.
S. cerevisiae transformed with Mfleader-GLA (SEQ ID NO:7), SP-GLA (SEQ ID NO:36) or a vector control were grown in HTP as described in Example 2. Cultures were grown for 48-120 h prior to harvest of the supernatant and analysis (n=6) as described in Example 2. FIG. 1 provides a graph showing the relative activity of different GLA constructs in S. cerevisiae after 2-5 days of culturing.

Data set [2] can be described thus: Thermostability of GLA variants expressed in HEK293T cells. To be noted: HEK293T supernatants; 30-54° C. for 1 h; residual MUGal activity.
The nature of data set [3]: HTP-analysis of yeast culture supernatants, no challenge (MUGal hydrolysis). Particulars: activity of the variant/activity of Rd3BB (SEQ ID NO: 13), yeast culture supernatant. Summed up: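 GLA variants expressed in yeast INVSc1, secreted into SD-Ura broth over 66-84 h at 30° C; clarified supernatants tested without challenge. Supernatant mixed with McIlvaine buffer pH 4.8 and 2 mM MUGal (citrate/KCl, pH 4.6), 37° C for 30-180 min, carbonate-quenched, fluorescence Ex 355/Em 448 nm.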

Data set [4] is described as follows: HTP-analysis of supernatants pretreated with acid (MUGal hydrolysis). Particulars: challenge at pH 4.0; activity of the variant/activity of Rd3BB (SEQ ID NO: 13); yeast culture supernatant. Summed up:
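GLA variants were secreted from INVSc1 yeast grown 66-84 h at 30° C. in SD-Ura with 2% glucose; supernatants were mixed with McIlvaine buffer pH 3.3-4.3 and held at 37° C. for 1-3 h. Residual activity on MUGal at pH 4.8 was then measured by fluorescence.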

A short description of data set [5]: HTP-analysis of supernatants pretreated with base (MUGal hydrolysis). To be noted: challenge at pH 8.2; activity of the variant/activity of Rd3BB (SEQ ID NO: 13); yeast culture supernatant. Summed up: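 GLA variants were secreted by transformed INVSc1 yeast grown 66-84 h at 30° C. Supernatants were exposed to neutral-to-basic buffers (pH 7.0-9.7) at 37° C for 1-18 h, then assayed with MUGal in acidic citrate/McIlvaine buffer, with fluorescence read after quenching.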

Data set [6] is described as follows: HTP-analysis of supernatants pretreated with bovine serum (MUGal hydrolysis). Particulars: activity of the variant/activity of Rd3BB (SEQ ID NO: 13), yeast culture supernatant. Summed up: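 Yeast INVSc1 culture supernatants containing secreted GLA variants were mixed with bovine serum (20:80) and held 1 h at 37° C. Serum-treated samples then reacted with MUGal (4 mM stock) in citrate/McIlvaine buffer (pH 4.3/4.8) for 180 min at 37° C., were quenched with sodium carbonate, and read by fluorescence (Ex 355, Em 448 nm).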

Changes are numbered by the printed parent chain. In names and notes the source's numbering stands.

For the molecule `OC[C@H]1NC[C@H](O)[C@@H](O)[C@H]1O` [Migalastat, 1-deoxygalactonojirimycin], on GLA (0.2 μM final concentration in the assay), the “reduction of GLA activity in the Migalastat treated sample” value is on record as approximately 60%. Besides, the “increase of Tm of GLA by addition of Migalastat” value on GLA (1 μM Migalastat during temperature challenge) stood at 5.5 °C.

B1: SP-GLA: 19 amino acid S. cerevisae MFalpha signal peptide fused to the mature form of yeast-optimized GLA (protein)
chain: MRFPSIFTAVLFAASSALALDNGLARTPTMGWLHWERFMCNLDCQEEPDSCISEKLFMEMAELMVSEGWKDAGYEYLCIDDCWMAPQRDSEGRLQADPQRFPHGIRQLANYVHSKGLKLGIYADVGNKTCAGFPGSFGYYDIDAQTFADWGVDLLKFDGCYCDSLENLADGYKHMSLALNRTGRSIVYSCEWPLYMWPFQKPNYTEIRQYCNHWRNFADIDDSWKSIKSILDWTSFNQERIVDVAGPGGWNDPDMLVIGNFGLSWNQQVTQMALWAIMAAPLFMSNDLRHISPQAKALLQDKDVIAINQDPLGKQGYQLRQGDNFEVWERPLSGLAWAVAMINRQEIGGPRSYTIAVASLGKGVACNPACFITQLLPVKRKLGFYEWTSRLRSHINPTGTVLLQLENTMQMSLKDLL
modifications: Synthetic Polynucleotide sequence of SP-GLA (yCDS)
notes: 19 amino acid S. cerevisae MFalpha signal peptide fused to the mature form of yeast-optimized GLA
Regarding B1, the “level of active enzyme produced in S. cerevisiae” value in data set [1] (2-5 days of culturing, saturated after three days of growth) was “high level of active enzyme”. The “supernatant activity on 4-MuGal, fold higher than MF-leader construct” value in data set [1] (S. cerevisiae INVSc1 supernatant, versus MF-leader construct) stood at 3 fold.

B2: Variant 73: GLA variant; K206A relative to SEQ ID NO: 5 (protein)
chain: T1 sequence (P06280 32-429) with K206A
modifications: Synthetic Polypeptide sequence of Variant No. 73
Consider B2, for which the “increase of Tm of the enzyme” value in data set [2] was found to be 2 °C.

B3: 299 (protein)
chain: T1 sequence (P06280 32-429) with K206A, F217R, N247D, Q302K, M322I, K343G, A350G, E367T, R373K, L397F
modifications: Synthetic Polypeptide sequence of Variant No. 299 of mature Human GLA
B3: in data set [3], the “Relative Activity of GLA Variants After No Challenge (NC)” value is “+ (+ = 0.5 to 1.5 relative activity over Rd3BB (SEQ ID NO: 13))”. Besides, the “Relative Activity of GLA Variants After Challenge at pH 4.0” value (from here on “Relative Activity … at pH 4.0”) in data set [4] is given as “− (− = <0.5 relative activity to Rd3BB (SEQ ID NO: 13))”. In addition, the “Relative Activity of GLA Variants After Challenge at pH 8.2” value (shortened to “Relative Activity … at pH 8.2”) in data set [5] is listed as “− (− = <0.5 relative activity to Rd3BB (SEQ ID NO: 13))”. Further, the “Relative Activity of GLA Variants After Challenge with Serum” value (“Relative Activity … with Serum” below) in data set [6] is “− (− = <0.5 relative activity to Rd3BB (SEQ ID NO: 13))”.

B4: 297 (protein)
chain: T1 sequence (P06280 32-429) with K206A, F217R, G230V, N247D, Q302K, M322I, E367N, T369S, R373K
modifications: Synthetic Polypeptide sequence of Variant No. 297 of mature Human GLA
Consider B4, for which, in data set [3], the “Relative Activity of GLA Variants After No Challenge (NC)” value is given as “− (− = <0.5 relative activity to Rd3BB (SEQ ID NO: 13))”. The “Relative Activity … at pH 4.0” value in data set [4] is “− (− = <0.5 relative activity to Rd3BB (SEQ ID NO: 13))”. In addition, the “Relative Activity … at pH 8.2” value in data set [5] is listed as “− (− = <0.5 relative activity to Rd3BB (SEQ ID NO: 13))”. Also, the “Relative Activity … with Serum” value in data set [6] is “− (− = <0.5 relative activity to Rd3BB (SEQ ID NO: 13))”.

B5: 298 (protein)
chain: T1 sequence (P06280 32-429) with K206A, F217R, N247D, L316D, M322I, A337P, A350G, K362Q, E367N, R373K
modifications: Synthetic Polypeptide sequence of Variant No. 298 of mature Human GLA
Turning to B5, in data set [3], the “Relative Activity of GLA Variants After No Challenge (NC)” value is reported as “++ (++ = >1.5 to 2.5 relative activity over Rd3BB (SEQ ID NO: 13))”. Also, the “Relative Activity … at pH 4.0” value in data set [4] is listed as “+++ (+++ = >2.5 relative activity over Rd3BB (SEQ ID NO: 13))”. The “Relative Activity … at pH 8.2” value in data set [5] was “+++ (+++ = >2.5 relative activity over Rd3BB (SEQ ID NO: 13))”. Moreover, the “Relative Activity … with Serum” value in data set [6] is recorded as “+++ (+++ = >2.5 relative activity over Rd3BB (SEQ ID NO: 13))”.

B6: 359 (protein)
chain: LDNGLARTPTMGWLHWERFMCNLDCQEEPDSCISEKLFMEMAERMVSEGWKDAGYEYLCIDDCWMAPQRDSEGRLQADPQRFPHGIRQLANYVHSKGLKFGIYADVGNKTCAGFPGSFGYYDIDAQTFADWGVDLLKFDGCYCDSLENLADGYKHMSLALNRTGRSIVYSCEWPLYMWPFIKPNYTEIRQYCNHWRNFADIDDSWASIKSILDWTSFNQETIVDVAGPGGWNDPDMLVIGNFGLSWDQQVTQMALWAIMAAPLFMSNDLRHISPQAKALLQDKDVIAINQDPLGKQGYQLRKGDNFEVWERPLSGLAWAVAVINRQEIGGPRSYTIAVASLGKGVACNPACFITQLLPVKRKLGFYNWTSRLKSHVNPTGTVLLQLENTMQMSLKDLL
modifications: Synthetic Polypeptide sequence of Variant No. 359 of mature Human GLA
On to B6, for which the “Relative Activity of GLA Variants After No Challenge (NC)” value in data set [3] is reported as “+ (+ = 0.5 to 1.5 relative activity over Rd3BB (SEQ ID NO: 13))”. The “Relative Activity … at pH 4.0” value in data set [4] is given as “+ (+ = 0.5 to 1.5 relative activity over Rd3BB (SEQ ID NO: 13))”. For the same molecule, the “Relative Activity … at pH 8.2” value in data set [5] is given as “+++ (+++ = >2.5 relative activity over Rd3BB (SEQ ID NO: 13))”. In data set [6], the “Relative Activity … with Serum” value is “+ (+ = 0.5 to 1.5 relative activity over Rd3BB (SEQ ID NO: 13))”.
